{"source": "patent US20260347441", "about": "(published 2026)", "binders": {"B1": {"name": "ABC3315 (antibody, V domains shown)", "VH": "EVQLVESGGGLVKPGGSLKLSCAASGFTFSGYAMSWFRQAPEKRLEWVATISSGGSYTYYLDSVKGRFTISRDNSKNTLYLQMSSLRSEDTAVYYCLASLITTDYFEYWGQGTLVTVSS", "VL": "DIVMTQSPSSLSASVGDRVTITCRASQDVGTAVAWYQQKPGQSPKLLIYWASTRHTGVPDRFSGSGSGTDFTLTISGLQSEDEADYFCQQYSNYPYTFGGGTKLEIKR", "modifications": "peg12-biotin conjugated, immobilized on streptavidin; vc-MMAE conjugate (ADC)"}, "B2": {"name": "ABC3315-WE (antibody, V domains shown)", "VH": "EVQLVESGGGLVKPGGSLKLSCAASGFTFSGYAMSWFRQAPEKRLEWVATISSGGSYTYYLDSVKGRFTISRDNSKNTLYLQMSSLRSEDTAVYYCLASLITTDYFEYWGQGTLVTVSS", "VL": "DIVMTQSPSSLSASVGDRVTITCRASQDVGTAVAWYQQKPGQSPKLLIYWASTRHTGVPDRFSGSGSGTDFTLTISGLQSEDEADYFCQQYSNYPYTFGGGTKLEIKR"}, "B3": {"name": "ABC3315-WEDD (antibody, V domains shown)", "VH": "EVQLVESGGGLVKPGGSLKLSCAASGFTFSGYAMSWFRQAPEKRLEWVATISSGGSYTYYLDSVKGRFTISRDNSKNTLYLQMSSLRSEDTAVYYCLASLITTDYFEYWGQGTLVTVSS", "VL": "DIVMTQSPSSLSASVGDRVTITCRASQDVGTAVAWYQQKPGQSPKLLIYWASTRHTGVPDRFSGSGSGTDFTLTISGLQSEDEADYFCQQYSNYPYTFGGGTKLEIKR"}}, "key": {"polatuzumab vedotin": {"biological_target": "polatuzumab vedotin (humanized)", "sequence (VH, as listed by the source, chain 1 of 2)": "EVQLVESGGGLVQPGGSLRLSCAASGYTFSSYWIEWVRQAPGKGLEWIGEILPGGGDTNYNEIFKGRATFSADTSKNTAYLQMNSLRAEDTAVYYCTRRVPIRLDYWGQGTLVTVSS", "sequence (VL, as listed by the source, chain 2 of 2)": "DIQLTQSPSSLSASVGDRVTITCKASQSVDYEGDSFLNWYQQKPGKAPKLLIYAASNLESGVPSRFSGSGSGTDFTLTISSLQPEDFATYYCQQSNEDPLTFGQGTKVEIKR", "experiment": "SPR"}, "human serum albumin": {"biological_target": "human serum albumin (human, UniProt P02768)", "experiment": "SPR"}}}
{"binder": "B1", "values": [{"measurement": "binding result", "setting": "polatuzumab vedotin", "result": "no binding"}]}
{"binder": "B2", "values": [{"measurement": "Kd", "setting": "human serum albumin", "result": 10.5, "unit": "µM"}]}
{"binder": "B3", "values": [{"measurement": "Kd", "setting": "human serum albumin", "result": 2.34, "unit": "µM"}]}
